For test [1], the target named is T1, human GPVI extracellular region-human Fc fusion protein (hGPVI-hFc) (human).
T1 construct: Expressed in COS-1, purified on Protein A; also called GPVI-HHH-hFc; hGPVIHHH-hFc
As to the kind of experiment: blocking ELISA: binding of hGPVI-hFc to immobilised collagen in the presence of the antibody (panel Comparsion of mouse anti-GPVI monoclonal antibodies). In general terms: An ELISA detects its analyte on a solid surface through an enzyme-linked reagent.

In test [2] the target is T1, human GPVI extracellular region-human …. As to the kind of experiment: competition ELISA on immobilised hGPVI-hFc: unlabelled antibody against the peroxidase-labelled mouse antibody of the panel titled F1232-10-2 competition assay (the text, paragraph 248, names F1232-10-1); x axis relative amount to labeled Ab (fold). The procedure:
Next, by using the peroxidase-labeled antibody, the competitive test for a variety of purified antibody was performed. That is, 25 μL of the above labeled antibody and 25 μL of each purified antibody were added to well of hGP-hFc-immobilized plate. After incubation at 37° C. for one hour, the well was washed five times with the saline containing 0.05% Tween20, and the reaction mixture was developed with TMB solution (BioFix). After incubation at room temperature for 10 minutes, the reaction was terminated with 0.5 M sulfuric acid solution and an absorbance at 450 nm was measured with the plate spectrophotometer (Multi-Scan JX, Dainippon Pharmaceutical).
To compare an antigen binding property of mouse/human chimeric antibody with that of the corresponding mouse monoclonal antibody, in the same method as that of EXAMPLE 14, peroxidase-labeled F1232-37-2, F1232-18-3, F1232-43-3 and F1232-10-1 were prepared. […] Further, an inhibiting activity of each antibody for binding of GPVI to collagen was measured according to the method described in EXAMPLE 2 or EXAMPLE 14. […]

The next test concerns the target T2, hGPVI-mL3-hFc (human (loop 3 from mouse)).
T2 construct: also called hGPVI-hFc-mL3
Briefly: competition ELISA on hGPVI-hFc plate; soluble hGPVI-mL3-hFc as competitor. The procedure:
(§1) To the plate, wherein hGPVI-hFc has been immobilized at 4 μg/mL, a mixture of peroxidase-labeled F1232-37-2 or cF1232-37-2 by the method described in EXAMPLE 14, and hGPVI-hFc, mGPVI-hFc, hGPVI-mL3-hFc, wherein these were prepared in EXAMPLE 7, or hGPVI-K59E-hFc (a fusion protein consisting of one amino acid mutated human GPVI extracellular region, wherein lysine at 59 of human GPVI is substituted for glutamic acid, and human Fc), which has been prepared by the same method as that of EXAMPLE 1 and diluted with 0.1% BSA/PBS was added, and the plate was incubated at 37° C. for one hour. After incubation, the mixture was developed using TMB solution, and absorbance at 450 nm was measured.

For test [3], the target named is T1, human GPVI extracellular region-human …. Briefly: competition ELISA on immobilised hGPVI-hFc: unlabelled antibody against labelled cF1232-37-2/COS. The procedure: as §1
To confirm the reactivity of cF1232-37-2/CHO, using binding ability to hGPVI-hFc as an index, the competitive test with cF1232-37-2 prepared by transient gene expression system with COS cells was performed. The measurement method was in accordance with the method described in 17-3 of EXAMPLE 17. Using hGPVI-hFc as an immobilized protein, a competitive activity to labeled cF1232-37-2/COS was confirmed when unlabeled cF1232-37-2/CHO or cF1232-37-2/COS was added at a variety of concentration. It was confirmed that the reactivity of cF1232-37-2/CHO is equivalent to that of cF1232-37-2/COS.

In the next test the target is T3, hGPVI-K59E-hFc (human).
T3 construct: Fusion of human GPVI extracellular region with lysine at 59 of human GPVI substituted for glutamic acid, and human Fc
T3 sequence (chain, as listed by the source K59E K59E limits assumed): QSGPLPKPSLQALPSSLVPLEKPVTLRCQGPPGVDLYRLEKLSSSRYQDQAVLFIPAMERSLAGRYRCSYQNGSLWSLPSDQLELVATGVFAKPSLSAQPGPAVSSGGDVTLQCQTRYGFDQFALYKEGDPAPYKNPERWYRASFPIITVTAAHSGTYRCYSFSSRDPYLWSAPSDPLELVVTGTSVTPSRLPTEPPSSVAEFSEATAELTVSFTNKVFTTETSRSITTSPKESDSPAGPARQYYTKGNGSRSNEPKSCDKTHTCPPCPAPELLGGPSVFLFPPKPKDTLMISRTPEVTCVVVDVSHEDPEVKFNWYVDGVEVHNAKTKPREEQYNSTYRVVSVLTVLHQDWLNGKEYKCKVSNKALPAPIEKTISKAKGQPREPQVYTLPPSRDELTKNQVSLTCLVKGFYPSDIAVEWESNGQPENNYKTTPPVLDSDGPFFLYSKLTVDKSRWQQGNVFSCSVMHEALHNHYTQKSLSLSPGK
As to the kind of experiment: competition ELISA on hGPVI-hFc plate; soluble hGPVI-K59E-hFc as competitor. The procedure:
as §1

Test [4] has as its target T1, human GPVI extracellular region-human …. Briefly: SPR (BIACORE 3000), hGPVI-hFc on CM5 chip, 0-800 nM analyte, bivalent analyte fit. The procedure:
(§2) Dissociation constant for F1232-37-2 (whole antibody) prepared in EXAMPLE 2, and F(ab′)2 and Fab prepared in 22-1 and 21-2 was measured with Protein Interaction Analyzer BIACORE 3000 (BIACORE). That is, to sensorchip CM5 (BIACORE) hGPVI-hFc prepared in EXAMPLE 1 was bound according to the manual. Then a series of dilution from 0 to 800 nM of each antibody was prepared with HBS-EP buffer (BIACORE) and analyzed with BIACORE 3000. After completion of antibody binding, chip was regenerated with glycine buffer (pH 1.5) (BIACORE). Regarding the results of whole antibody and F(ab′)₂, evaluation software Bivalent analyte (BIACORE) was used for analysis; 1:1 Binding for Fab analysis. Then the dissociation constant was calculated. As a result, dissociation constant of F1232-37-2 F(ab′)2 and Fab was about 0.7 and 0.6, respectively, when that of whole antibody defined as one.
Background: SPR reads the build-up and loss of mass on a sensor chip optically.

Test [5] shares this target. Briefly: SPR (BIACORE3000), GPVI-Fc on CM5 chip, antibody 1.25-40 nM as analyte, bivalent analyte fit. On the procedure:
(§3) Dissociation constant for the anti-GPVI monoclonal antibody prepared in EXAMPLE 2 was measured using protein interaction analyzer BIACORE3000 (BIACORE). That is, to sensor chip, CM5 chip (BIACORE), GPVI substitution mutant (hGPVIHHH-hFc and FFH-hFc) that is prepared in EXAMPLE 1 was linked according to the manual. Then each antibody was diluted with HBS-EP buffer solution (BIACORE) to prepare a series of diluted solution from 1.25 to 40 nM, and analyzed with BIACORE3000. Every each antibody bound chip, the chip was regenerated with glycine buffer solution at pH1.5. The obtained result was analyzed with Bivalent analyte, the evaluation software (BIACORE) to calculate dissociation constant. It was shown that each anti-GPVI monoclonal antibody has a sufficient affinity to GPVI-HHH-hFc.

Test [6] deals with T4, cynomolgus monkey D1D2-human D3 chimeric GPVI-human Fc fusion protein (GPVI-FFH-hFc) (cynomolgus monkey (D1, D2) and human …).
T4 construct: also called Monkey GPVI
T4 sequence (chain, as listed by the source mutant limits assumed): as the sequence (chain, as listed by the source K59E K59E limits assumed) above, with S2R, E59K, S61H, L78P, R166G, V181M, P442S counted along it
The test is described as above. On the procedure:
as §3

The target of test [7] is T1, human GPVI extracellular region-human …. As to the kind of experiment: ELISA on immobilised hGPVI-hFc (GPVI antigen binding assay of Example 31).
Test [8] has the same target. Briefly: ELISA on immobilised hGPVI-hFc, peroxidase-labelled anti-mouse immunoglobulin antibody. The procedure:
Binding activity to the antigen was detected by ELISA. To each well of immunoplate immobilized with hGPVI-hFc (prepared by the method described in EXAMPLE 2 and the like), F1232-37-2 antibody and F1232-37-2 PEGylated antibody, wherein both antibodies had been adjusted to the same concentration, was added and the plate was incubated at 37° C. for one hour. The well was washed with saline containing 0.05% Tween20. Then 50 μL of peroxidase-labeled anti-mouse immunoglobulin antibody (DAKO, P260), which had been diluted by 1000-fold with 10% rabbit serum-containing D-PBS, was added to each well. After incubation at 37° C. for one hour, coloring reaction by the TMB substrate was done to measure an absorbance at 450 nm with plate spectro-photometer (Molecular Devices, Wako). As a result, it was confirmed that both F1232-37-2 antibody and PEGylated F1232-37-2 antibody have almost equivalent binding activity.

For test [9] the target is unchanged. As to the kind of experiment: SPR (BIACORE 3000), hGPVI-hFc on CM5 chip, 0-800 nM analyte, 1:1 binding fit. The procedure:
as §2

Substitutions are numbered along the chain they refer to.

T1 sequence (chain, as listed by the source limits assumed): as the sequence (chain, as listed by the source K59E K59E limits assumed) above, with E59K counted along it
T2 sequence (chain, as listed by the source limits assumed): as the sequence (chain, as listed by the source K59E K59E limits assumed) above, with G33D, E59K counted along it

B1: F1232-10-1 (antibody, V domains shown)
VH: VTLKESGPGILQPSQTLSLTCSFSGFSLSTYGIGVGWIRQPSGKGLEWLAHIWWNDDKYYNTALKSRLTISKDTSNNQVFLKIASVDTADTATYYCARVYYYGSSFDYWGQGTTLTVSS
VL: DIQMTQSPASLSASVGETVTITCRASENIFSILAWYQQKQGKSPQLLVYAATNLADGVPSRFSGSGSGTQFSLKINSLQPEDFGSYYCQHFYGTPWTFGGGTKLEIKR
notes: Mouse hybridoma monoclonal antibody
In the case of B1, in [1], the binding result is recorded as “binds”.

B2: cF1232-10-1 (antibody, human IgG4, V domains shown)
VH: B1 VH
VL: B1 VL
notes: Mouse/human chimeric antibody of F1232-10-1; human IgG4 and kappa constant regions; COS-1
Turning to B2, the binding result in test [2] is reported as “binds”.

B3: cF1232-37-2 (mouse/human chimeric antibody of F1232-37-2) (antibody, human IgG4, V domains shown)
VH: VQLQQSGPELVRPGESVKISCKGSGYTFTDYAIHWVKLSHAKSLEWIGVISIYYDDTNYNQKFKGKATMTVDKSSSTAYLELARLTSEDSAIYYCARRRDSSGPYAMDYWGQGTSVTVSS
VL: DIVLTQSPASLAVSLGQRATISCRASESVDSYGNSFMHWYQQKPGQPPKLLIYRASNLESGIPARFSGSGSRTDFTLTINPVEADDVATYYCQQSNEDPYTFGGGTKLEIKR
notes: Mouse V regions of F1232-37-2 with human IgG4 (Cgamma4) and human kappa constant regions; plasmids pTK-2510 and pTK-2511; made in COS-1 (/COS) and in CHO DXB11 (/CHO); also called cF1232-37-2/COS; cF1232-37-2/CHO
Consider B3, for which the binding result in the test with hGPVI-mL3-hFc and with hGPVI-K59E-hFc was “binds” in each case. The “IC50 (read off the curve)” value in test [3] was about 1 µg/mL.

B4: F1232-37-2 F(ab')2 (other)
VH: B3 VH
VL: DIVLTQSPASLAVSLGQRATISCRASESVDSYGNSFMHWYQQKPGQPPKLLIYRASNLESGIPARFSGSGSRTDFTLTINPVEADDVATYYCQQSNEDPYTFGGGTKLEIKRADAA
notes: F(ab')2 fragment made from mouse F1232-37-2 with Lysyl Endopeptidase; also called mouse monoclonal antibody F1232-37-2 F(ab')2
Take B4: the “dissociation constant relative to that of the whole antibody (defined as one)” value in test [4] was ~0.7 fold of whole F1232-37-2.

B5: F1232-18-3 (antibody, V domains shown)
VH: VMLVESGGGLVKPGGSLKLSCAASGFTFSSYAMSWVRQTPEKRLEWVATISSGGSYTYYPDSVKGRFTISRDNAKNTLYLQMSSLRSADTAMYYCARDYGYFDYWGQGTTLTVSS
VL: B3 VL with S31N, N34I, I52F, A84T, E97T, Y100R
notes: as for B1
Consider B5, for which the Kd came to 1.65 nM in test [5] and 365 nM in [6].

B6: PEG-F1232-372Fab (Fab, V domains shown)
VH: B3 VH
VL: DIVLTQSPASLAVSLGQRATISCRASESVDSYGNSFMHWYQQKPGQPPKLLIYRASNLESGIPARFSGSGSRTDFTLTINPVEADDVATYYCQQSNEDPYTFGGGTKLEIK
modifications: linear 20 KD PEG with succinimide group; sites not given ; Linear 20 KD PEG with succinimide group coupled to the Fab; sites and number not given.
notes: also called PEGylated F1232-37-2 Fab antibody; PEGylated F1232-37-2Fab fragment; copies: 1 + 1
The EC50 (read off the curve) is the concentration at which the effect is half-maximal. For the molecule B6, the concentration for a half-maximal effect (EC50 (read off the curve)) in [7] is about 0.3 µg/mL.

B7: PEGylated F1232-37-2 antibody (antibody, V domains shown)
VH: B3 VH
VL: B3 VL
modifications: linear PEG of 20 KD coupled through a succinimide group; sites not stated
notes: Whole mouse F1232-37-2 reacted with PEG at antibody:PEG 1:10 (molar) and purified on Q Sepharose HP; also called F1232-37-2 PEGylated antibody
For B7, the 50% effective concentration (EC50 (read off the curve)) in test [8] was about 0.02 µg/mL.

B8: F1232-24-1 (antibody, V domains shown)
VH: VQLQQSGAELVRPGVSVKISCKGSGYTFTDYAMHWVKQSHAKSLEWIGVISTYYGDASYNQKFKGKATMTVDKSSSTAYMELARLTSEDSAIYYCARSYDYDPWFAYWGQGTLVTVSA
VL: B3 VL with S31N, N34I, A84T, E97K, Y100L, G104A, I110L
notes: as for B1
Consider B8, for which the figures for the Kd in test [5] and in test [6] were 0.25 nM and 0.71 nM, respectively.

B9: F1232-37-2 Fab (Fab, V domains shown)
VH: B3 VH
VL: B3 VL
notes: Fab made from mouse F1232-37-2 with papain; also called F1232-37-2 Fab antibody
As for B9, in test [9], the “dissociation constant relative to that of the whole antibody (defined as one)” value is ~0.6 fold of whole F1232-37-2. In test [7], the concentration giving a half-maximal response (EC50 (read off the curve)) was about 0.3 µg/mL.

B10: F1232-37-2 (antibody, V domains shown)
VH: B3 VH
VL: B3 VL
notes: Mouse hybridoma monoclonal antibody; also called F1232-37-2 antibody; F1232-37-2 whole antibody
Regarding B10, the Kd came out at 0.403 nM in test [5] and 1 nM in test [6]. Besides, the binding result with hGPVI-mL3-hFc and with hGPVI-K59E-hFc was “binds” throughout. In test [8], the “EC50 (read off the curve)” value is about 0.02 µg/mL.

These data come from patent publication US20090041783A1 (MOCHIDA PHARMACEUTICAL, published 2009).
